Reference: patent US20200055939A1 (Genentech, published 2020)
Where two headings read alike, the source gives them in different places.

T1: MICA008.His (human MICA*008 alpha 3 domain, His tagged) (human)
T1 construct: Also used for FPOP (expressed in CHO); also called huMICA*008 alpha 3-his; MICA*008 a3
T1 chain: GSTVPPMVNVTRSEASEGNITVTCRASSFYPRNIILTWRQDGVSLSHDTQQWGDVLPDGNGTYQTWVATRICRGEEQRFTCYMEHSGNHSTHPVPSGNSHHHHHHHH

T2: MICA*008 on MEL-JUSO cells (human, UniProt Q29983 24-317)
T2 chain: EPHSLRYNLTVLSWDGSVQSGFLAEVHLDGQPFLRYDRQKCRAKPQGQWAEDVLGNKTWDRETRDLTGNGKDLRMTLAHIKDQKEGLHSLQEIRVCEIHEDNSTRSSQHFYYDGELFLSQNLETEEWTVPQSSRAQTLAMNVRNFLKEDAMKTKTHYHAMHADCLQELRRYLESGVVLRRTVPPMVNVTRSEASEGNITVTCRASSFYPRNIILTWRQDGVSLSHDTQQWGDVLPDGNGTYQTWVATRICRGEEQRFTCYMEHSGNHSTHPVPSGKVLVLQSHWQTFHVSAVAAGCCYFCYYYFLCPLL

T3: MICB*005 on HCC1534 cells (human, UniProt Q29980 23-383)
T3 sequence (looked up): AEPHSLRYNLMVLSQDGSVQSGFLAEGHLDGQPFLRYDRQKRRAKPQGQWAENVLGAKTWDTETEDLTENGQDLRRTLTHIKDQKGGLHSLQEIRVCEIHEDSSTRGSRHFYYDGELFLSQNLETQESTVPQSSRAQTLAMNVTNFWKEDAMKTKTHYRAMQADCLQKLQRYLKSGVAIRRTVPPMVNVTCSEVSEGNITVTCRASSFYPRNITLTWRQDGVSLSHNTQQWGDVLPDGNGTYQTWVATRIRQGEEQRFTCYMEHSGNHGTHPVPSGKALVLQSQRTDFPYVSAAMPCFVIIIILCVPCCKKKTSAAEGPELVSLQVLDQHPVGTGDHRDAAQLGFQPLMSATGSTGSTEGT

T4: MICA004.His (human MICA*004 alpha 3 domain, His tagged) (human)
T4 construct: also called huMICA*004 alpha 3-his
T4 chain: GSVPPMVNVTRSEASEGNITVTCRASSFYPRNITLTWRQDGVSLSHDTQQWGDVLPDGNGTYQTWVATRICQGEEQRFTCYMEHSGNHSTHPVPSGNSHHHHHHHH

T5: MICB005.His (human MICB*005 alpha 3 domain, His tagged) (human)
T5 construct: also called huMICB*005 alpha 3-his
T5 chain: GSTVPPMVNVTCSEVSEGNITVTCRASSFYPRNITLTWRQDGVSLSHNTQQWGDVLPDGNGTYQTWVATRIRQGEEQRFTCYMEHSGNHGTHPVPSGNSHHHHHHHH

T6: MICA002.His (human MICA*002 alpha 3 domain, His tagged) (human)
T6 construct: also called huMICA*002 alpha 3-his
T6 chain: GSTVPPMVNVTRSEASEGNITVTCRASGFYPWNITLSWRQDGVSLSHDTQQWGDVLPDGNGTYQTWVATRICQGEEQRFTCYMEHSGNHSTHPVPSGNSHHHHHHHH

T7: MICA.008.a3.T204-S297.E215N.mIgG2a.Glyco12 (human; mouse, UniProt Q29983 204-297, engineered N-linked glycosylation site E215N)
T7 construct: not shown: murine IgG2a Fc
T7 chain: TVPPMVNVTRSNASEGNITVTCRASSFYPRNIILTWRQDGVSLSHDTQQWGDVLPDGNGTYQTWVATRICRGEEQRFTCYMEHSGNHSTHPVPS

T8: MICA.008.a3.T204-S297.C-terminal insert of N298.G299.S300.mIgG2a.Glyco17 (human; mouse, UniProt Q29983 204-297, engineered N-linked glycosylation site at inserted N298)
T8 construct: not shown: murine IgG2a Fc
T8 chain: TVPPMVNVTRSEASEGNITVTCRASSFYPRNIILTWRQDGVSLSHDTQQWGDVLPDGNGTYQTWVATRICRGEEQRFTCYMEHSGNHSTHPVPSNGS

T9: MICA.008.a3.T204-S297.H248N.mIgG2a.Glyco15 (human; mouse, UniProt Q29983 204-297, engineered N-linked glycosylation site H248N)
T9 construct: not shown: murine IgG2a Fc
T9 chain: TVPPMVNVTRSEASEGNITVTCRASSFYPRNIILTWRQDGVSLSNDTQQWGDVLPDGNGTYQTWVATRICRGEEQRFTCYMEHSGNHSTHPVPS

T10: MICA.008.a3.R202-S297.R202N mIgG2a.Glyco11 (human; mouse, UniProt Q29983 203-297, engineered N-linked glycosylation site R202N)
T10 construct: not shown: murine IgG2a Fc
T10 chain: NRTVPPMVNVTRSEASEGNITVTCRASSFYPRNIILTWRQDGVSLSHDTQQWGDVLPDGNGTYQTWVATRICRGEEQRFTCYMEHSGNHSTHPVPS

T11: MICA.008.a3.T204-S297.I236T.mIgG2a.Glyco13 (human; mouse, UniProt Q29983 204-297, engineered N-linked glycosylation site created by I236T)
T11 construct: not shown: murine IgG2a Fc
T11 chain: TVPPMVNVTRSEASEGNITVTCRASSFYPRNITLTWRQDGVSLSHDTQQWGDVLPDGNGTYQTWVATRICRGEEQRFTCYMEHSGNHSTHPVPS

T12: MICA.008.a3.T204-S297.R279N.mIgG2a.Glyco16 (human; mouse, UniProt Q29983 204-297, engineered N-linked glycosylation site R279N)
T12 construct: not shown: murine IgG2a Fc
T12 chain: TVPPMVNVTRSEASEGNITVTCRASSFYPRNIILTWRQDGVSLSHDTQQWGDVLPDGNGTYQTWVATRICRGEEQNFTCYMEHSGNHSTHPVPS

T13: MICA.008.a3.T204-S297.G243N.mIgG2a.Glyco14 (human; mouse, UniProt Q29983 204-297, engineered N-linked glycosylation site G243N)
T13 construct: not shown: murine IgG2a Fc
T13 chain: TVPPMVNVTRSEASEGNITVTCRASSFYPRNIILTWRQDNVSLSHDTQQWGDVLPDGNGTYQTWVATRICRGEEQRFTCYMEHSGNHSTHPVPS


Legend:
[1] = biological target: T1, MICA008.His (human MICA*008 alpha 3 …); assay: SPR (Biacore), MICA*008 alpha-3 domain
[2] = biological target: T2, MICA*008 on MEL-JUSO cells; assay: cell-based or functional assay
[3] = biological target: T3, MICB*005 on HCC1534 cells; assay: cell-based or functional assay
[4] = biological target: T14, MICA*004 on HCC1534 cells (human, UniProt Q29983 24-383); assay: cell-based or functional assay
[5] = biological target: T4, MICA004.His (human MICA*004 alpha 3 …); assay: SPR, antibody captured;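 note: SPR with antibody held by surface-bound anti-Fc while His-tagged alpha three domains flow over, Kd derived by fitting a one-to-one binding model to sensograms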
Description: (§1) The binding kinetics of the anti-MICA/B antibodies were measured using surface plasmon resonance (SPR) on a Biacore T200 instrument (GE Healthcare). Anti-murine Fc or anti-human Fc (GE Healthcare) was immobilized on a CM5 sensor chip via amine-based coupling using manufacturer provided protocol. Anti-MICA/B antibody was captured by the anti- Fc and the MICA/B alleles were passed over. Antibody binding was measured to human MICA 002, 004, 008 and MICB 005 alpha 3 domains (His tagged, in-house). Sensograms for binding of MICA/B were recorded using an injection time of 2-3 minutes with a flow rate of 30 ml/min, at a temperature of 25° C., and with a running buffer of 10mM HEPES, pH 7.4, 150 mM NaCl, and 0.005% Tween 20. After injection, disassociation of the alpha 3 domain from the antibody was monitored for 10 minutes in running buffer. The surface was regenerated between binding cycles with a 60 ul injection of 10 mM Glycine HCl pH 1.7. […] The data was analyzed using a 1:1 binding model. Sensograms of MICA alleles binding to captured anti-MICA antibody were used to calculate the dissociation constant (Kd).

[6] = biological target: T5, MICB005.His (human MICB*005 alpha 3 …); assay: SPR, antibody captured;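 note: SPR with antibody held by surface-bound anti-Fc while His-tagged alpha three domains flow over, Kd derived by fitting a one-to-one binding model to sensograms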
Description: as §1

[7] = biological target: T1, MICA008.His (human MICA*008 alpha 3 …); assay: SPR, antibody captured;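 note: SPR with antibody held by surface-bound anti-Fc while His-tagged alpha three domains flow over, Kd derived by fitting a one-to-one binding model to sensograms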
Description: as §1

[8] = biological target: T6, MICA002.His (human MICA*002 alpha 3 …); assay: SPR, antibody captured;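 note: SPR with antibody held by surface-bound anti-Fc while His-tagged alpha three domains flow over, Kd derived by fitting a one-to-one binding model to sensograms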
Description: as §1

[9] = biological target: T2, MICA*008 on MEL-JUSO cells; assay: cell-based or functional assay
[10] = biological target: T3, MICB*005 on HCC1534 cells; assay: cell-based or functional assay; remark: listed apart in the source
[11] = biological target: MICA*002 on cells (PANC-1; B16-MICA002) (human, UniProt Q29983 24-383); assay: cell-based or functional assay
[12] = biological target: T14, MICA*004 on HCC1534 cells; assay: cell-based or functional assay; remark: listed apart in the source
[13] = biological target: T7, MICA.008.a3.T204-S297.E215N.mIgG2a.Glyco …; assay: ELISA, coated variant;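 note: ELISA with plates coated at 2 ug/ml with MICA*008 alpha 3 glycosylation variants as murine IgG2a Fc fusions, antibody binding detected by HRP anti-human IgG Fc and TMB absorbance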
Description: (§2) Hybridoma derived clones binding to all four MICA/B alleles alpha 3 domains were tested by ELISA for binding to the MICA*008 alpha 3 glycosylation variants fused to murine IgG2a Fc fusion. Nunc maxisorp plates were coated with 2 ug/ml of glycosylation variants as previously described. Cloned and recombinantly expressed hybridoma monoclonal antibodies were added to the plates after blocking with a 1X PBS buffer containing 0.5% BSA and 0.05% Tween 20. After incubation, plates were washed multiple times with wash buffer (1X PBS containing 0.05% Tween 20) and secondary antibody (goat anti-human IgG Fc conjugated to HRP) was added. Plates were then washed multiple times with wash buffer again before adding either BioFX TMB Microwell 1 Component Peroxidase or tetramethylbenzidine (TMB) substrate (KPL; Gaithersburg, Md.). After several minutes of incubation, the reaction was stopped with BioFX stop solution or 1 N solution of HCl, respectively. Plates were read on a Spectra MAX 340 plate reader at either 630 or 450 nm respectively (Molecular Devices; Sunnyvale, Calif.).

[14] = biological target: T8, MICA.008.a3.T204-S297.C-terminal insert …; assay: ELISA, coated variant;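 note: ELISA with plates coated at 2 ug/ml with MICA*008 alpha 3 glycosylation variants as murine IgG2a Fc fusions, antibody binding detected by HRP anti-human IgG Fc and TMB absorbance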
Description: as §2

[15] = biological target: T9, MICA.008.a3.T204-S297.H248N.mIgG2a.Glyco …; assay: ELISA, coated variant;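 note: ELISA with plates coated at 2 ug/ml with MICA*008 alpha 3 glycosylation variants as murine IgG2a Fc fusions, antibody binding detected by HRP anti-human IgG Fc and TMB absorbance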
Description: as §2

[16] = biological target: T10, MICA.008.a3.R202-S297.R202N …; assay: ELISA, coated variant;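 note: ELISA with plates coated at 2 ug/ml with MICA*008 alpha 3 glycosylation variants as murine IgG2a Fc fusions, antibody binding detected by HRP anti-human IgG Fc and TMB absorbance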
Description: as §2

[17] = biological target: T11, MICA.008.a3.T204-S297.I236T.mIgG2a.Glyco …; assay: ELISA, coated variant
Description: as §2

[18] = biological target: T3, MICB*005 on HCC1534 cells; assay: cell-based or functional assay; remark: listed apart in the source
[19] = biological target: T14, MICA*004 on HCC1534 cells; assay: cell-based or functional assay; remark: listed apart in the source
[20] = biological target: T12, MICA.008.a3.T204-S297.R279N.mIgG2a.Glyco …; assay: ELISA, coated variant
Description: as §2

[21] = biological target: T13, MICA.008.a3.T204-S297.G243N.mIgG2a.Glyco …; assay: ELISA, coated variant
Description: as §2

Row | Binder | Kd [1] [nM] | % max inhibition of shedding [2] [%] | EC50 of shedding inhibition [2] [µg/mL] | % max inhibition of shedding [3] [%] | EC50 of shedding inhibition [3] [µg/mL] | % max inhibition of shedding [4] [%] | EC50 of shedding inhibition [4] [µg/mL] | Kd [5] [nM] | Kd [6] [nM] | Kd [7] [nM] | Kd [8] [nM] | binding result [13] | binding result [14] | binding result [15] | binding result [16] | binding result [17] | binding result [20] | also measured
1 | 1D5 (antibody, V domains shown, Mouse variable domains; constant regions differ by assay (human IgG1 or mouse IgG2a); also called anti-MIC 1D5) VH: EIQLQQSGPELVKPGASVKVSCKASGYAFTSQNIYWVKQSHGKSLEWIGYIEPYNVVPMYNPKFKGKATLTVDKSSSSAYIHLNSLTSEDSAIYYCARSGSSNFDYWGQGTTLTVSS VL: EIILTQSPTTMAASPGEKITITCSASSSISSHYLHWYQQKSGFSPKLLIYRTSNLASGVPARFSGSGSGTSYSLTIGTMEAEDVATYYCQQGSSLPLTFGAGTKVEIK | 0.5 | 77 | 0.0087 | 54 | 0.0128 | 81 | 0.0435 | 0.49 | 1.09 | 0.42 | 0.67 | binds | binds | binds | binds | binds | – | EC50 of shedding inhibition [9]: 0.0207 µg/mL; Max % Inhibition of shedding [9]: 74%; EC50 of shedding inhibition [10]: 0.0386 µg/mL; Max % Inhibition of shedding [10]: 59%; EC50 of shedding inhibition [11]: 0.0342 µg/mL; Max % Inhibition of shedding [11]: 48%; EC50 of shedding inhibition [12]: 0.0136 µg/mL; Max % Inhibition of shedding [12]: 65%; maximum inhibition of shedding [18]: ~50%; maximum inhibition of shedding [19]: ~60%
2 | 18G3 (antibody, V domains shown, Mouse variable domains; constant regions differ by assay) VH: VQLQESGPGLVKPSQSLSLTCNVTGYSITGDYAWNWIRQFPGNKLEWIGYIGYTGSTTYNPSLKSRVSITRDTSKNQFFLQLNSVTPEDTATYYCARWRNWAMDYWGLGTSVTVSS VL: DIQMTQTPSSLSASLGDRVTISCRANQDISHYLNWYQQKPDGAVKLLIYYTSRIHSGVPSRFSGSGSGTDYSLTIANLEQEDVATYFCQQGNTPPTTFGGGTKVEIK | 2.6 | 75 | 0.0191 | 48 | 0.0124 | 74 | 0.012 | 4.03 | 6.18 | 2.03 | 10.4 | binds | binds | binds | binds | binds | binds | –
3 | 12H10 (antibody, V domains shown, Mouse variable domains; constant regions differ by assay) VH: DVQLQESGPGLVKPSQPLSLTCTVTGYSITSNYAWNWIRQFPGDKLEWMGYISSSGITKSNPSLKSRISITRDTSKNQFFLQLNSLTTEDTATYYCSRWSNWSFDVWGAGTTVTVSS VL: DIQMTQTPSSLSVSLGDRVTINCRASQDIHNYFNWYQQKPDGTIKLLIYYTSRFHSGVPSRFSGSGSGTDYSLTISNLEEEDIATYFCQQGNSLPPTFGGGTKLEIK | 1.9 | 81 | 0.0103 | 54 | 0.139 | 76 | 0.0689 | 7.02 | 10.7 | 1.48 | 25.8 | binds | binds | binds | binds | binds | binds | –
4 | 20G11 (antibody, V domains shown, Mouse hybridoma antibody; constant regions differ by assay) VH: DVQLVESGGGLVQPGGSRKLSCAASGFTFSTFGIHWVRQAPEKGLEWVAYISYDSRTIYYADTVKGRFTISRDNPKNTLFLQMTSLRSEDTAMYYCARWAYEGGVNYFDNWGQGTTLTVSS VL: QIVLTQSPAIMSASLGERVTMTCTATSGVSSSYLHWYQQKPGSSPKLWIYSSSNLASGVPARFSGSGSGTSYSLTIGSMEAEDAATYYCHQFHRSPLTFGTGTKVEIK | 3.8 | 70 | 0.0285 | 51 | 0.0169 | 69 | 0.123 | 1.06 | 1.05 | 0.77 | 1.76 | binds | binds | binds | binds | binds | – | binding result [21]: binds
